# Assays:
# [1] = target: Deg8 (sample of the analytical SEC) (Arabidopsis thaliana) (UniProt Q9LU10); experiment: SEC; analytical SEC of Deg8 at pH 6.0; Superdex 200 10/300 GL, 10 µM protein, sodium phosphate, 150 mM NaCl
# [2] = target: Deg8 (sample of the analytical SEC) (Arabidopsis thaliana) (UniProt Q9LU10); experiment: SEC; analytical SEC of Deg8 at pH 8.0; Superdex 200 10/300 GL, 10 µM protein, sodium phosphate, 150 mM NaCl
# [3] = target: the molecule itself; experiment: crystal structure; Deg8 (S292A), space group C2, three molecules per asymmetric unit, 2.0 Å; hexamer in the crystal
# [4] = target: the molecule itself; experiment: crystal structure; Deg5 (S266A), space group C2, three molecules per asymmetric unit, 2.6 Å
# [5] = target: the molecule itself; experiment: SEC; analytical SEC, Superdex 200 10/300 GL, 10 µM protein, sodium phosphate pH 6.0 or 8.0, 150 mM NaCl
# Sequence of Deg8 (sample of the analytical SEC) (Q9LU10 91-448): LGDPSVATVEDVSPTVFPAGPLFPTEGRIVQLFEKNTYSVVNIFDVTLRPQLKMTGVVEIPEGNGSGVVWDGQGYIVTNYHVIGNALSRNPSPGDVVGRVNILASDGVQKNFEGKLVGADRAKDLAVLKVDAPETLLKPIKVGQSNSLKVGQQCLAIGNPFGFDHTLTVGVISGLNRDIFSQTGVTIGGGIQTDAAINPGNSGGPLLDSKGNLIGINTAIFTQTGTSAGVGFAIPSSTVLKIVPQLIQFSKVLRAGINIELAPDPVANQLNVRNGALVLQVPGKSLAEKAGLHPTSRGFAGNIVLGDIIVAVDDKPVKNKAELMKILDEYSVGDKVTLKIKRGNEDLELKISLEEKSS
molecule,measurement,setting,value
Deg8 (sample of the analytical SEC) (from UniProt Q9LU10 91-448) (enzyme),stoichiometry N,[1],3
same,stoichiometry N,[2],6
"Arabidopsis thaliana Deg8 (S292A) (enzyme, UniProt Q9LU10 91-448, looked up, HtrA protease Deg8 of Arabidopsis thaliana, 358 residues Leu91-Ser448, catalytic Ser292 mutated to alanine; residues 104-448 defined in the density; source: expression and purification described previously (Shan et al., 2013)) LGDPSVATVEDVSPTVFPAGPLFPTEGRIVQLFEKNTYSVVNIFDVTLRPQLKMTGVVEIPEGNGSGVVWDGQGYIVTNYHVIGNALSRNPSPGDVVGRVNILASDGVQKNFEGKLVGADRAKDLAVLKVDAPETLLKPIKVGQSNSLKVGQQCLAIGNPFGFDHTLTVGVISGLNRDIFSQTGVTIGGGIQTDAAINPGNAGGPLLDSKGNLIGINTAIFTQTGTSAGVGFAIPSSTVLKIVPQLIQFSKVLRAGINIELAPDPVANQLNVRNGALVLQVPGKSLAEKAGLHPTSRGFAGNIVLGDIIVAVDDKPVKNKAELMKILDEYSVGDKVTLKIKRGNEDLELKISLEEKSS",stoichiometry N,[3],6
"Arabidopsis thaliana Deg5 (S266A) (enzyme, HtrA protease Deg5 of Arabidopsis thaliana, catalytic Ser266 mutated to alanine; PDB 4ic5 holds the crystallised chain; source: purified; expression and purification described previously (Fan et al., 2012)) LEQFKEKEEELEEEEERNVNLFQKTSPSVVYIEAIELPKTSSGDILTDEENGKIEGTGSGFVWDKLGHIVTNYHVIAKLATDQFGLQRCKVSLVDAKGTRFSKEGKIVGLDPDNDLAVLKIETEGRELNPVVLGTSNDLRVGQSCFAIGNPYGYENTLTIGVVSGLGREIPSPNGKSISEAIQTDADINSGNAGGPLLDSYGHTIGVNTATFTRKGSGMSSGVNFAIPIDTVVRTVPYLIVYGTAYRDR",stoichiometry N,[4],3
"Deg5 (E87A/D260A/S266A) (enzyme, Arabidopsis thaliana, HtrA protease Deg5 of Arabidopsis thaliana with E87A, D260A and S266A; parent is Deg5 (S266A), m1; also called Deg5 (S266A/E87A/D260A) triple mutant; mutant (E87A/D260A/S266A)) LEQFKEKEEELEEAEERNVNLFQKTSPSVVYIEAIELPKTSSGDILTDEENGKIEGTGSGFVWDKLGHIVTNYHVIAKLATDQFGLQRCKVSLVDAKGTRFSKEGKIVGLDPDNDLAVLKIETEGRELNPVVLGTSNDLRVGQSCFAIGNPYGYENTLTIGVVSGLGREIPSPNGKSISEAIQTDAAINSGNAGGPLLDSYGHTIGVNTATFTRKGSGMSSGVNFAIPIDTVVRTVPYLIVYGTAYRDR",stoichiometry N,[5],3
